Measured values reported in publication PMC9287376 (Nature Communications, 2022).
Numbering of substitutions follows the chain as printed.

B1: wild-type trigger factor (natural protein)
chain: MQVSVETTQGLGRRVTITIAADSIETAVKSELVNVAKKVRIDGFRKGKVPMNIVAQRYGASVRQDVLGDLMSRNFIDAIIKEKINPAGAPTYVPGEYKLGEDFTYSVEFEVYPEVELQGLEAIEVEKPIVEVTDADVDGMLDTLRKQQATWKEKDGAVEAEDRVTIDFTGSVDGEEFEGGKASDFVLAMGQGRMIPGFEDGIKGHKAGEEFTIDVTFPEEYHAENLKGKAAKFAINLKKVEERELPELTAEFIKRFGVEDGSVEGLRAEVRKNMERELKSAIRNRVKSQAIEGLVKANDIDVPAALIDSEIDVLRRQAAQRFGGNEKQALELPRELFEEQAKRRVVVGLLLGEVIRTNELKADEERVKGLIEEMASAYEDPKEVIEFYSKNKELMDNMRNVALEEQAVEAVLAKAKVTEKETTFNELMNQQA
notes: trigger factor, a bacterial ATP-independent chaperone; results are mapped onto the crystal structure pdb 1w26; Monomer-dimer equilibrium; predominantly monomeric under the conditions used (low uM, 0.26 M GdnHCl); also called TF; source: E. coli BL21 (DE3), purified (Ni-His Trap, ULP1 cleavage, HiTrap Q, Superdex 75); not shown: His-Sumo, N-terminal, cleaved
B2: refolding glyceraldehyde 3-phosphate dehydrogenase (rabbit GAPDH, GdnHCl-denatured and diluted into refolding buffer) (enzyme)
chain: not shown
notes: glyceraldehyde 3-phosphate dehydrogenase, rabbit (rabbit-muscle GAPDH, pdb 1J0X); Native GAPDH is a tetramer; The protein from tissue likely lacks the initiator methionine (surmise); also called rGAPDH; source: bought: Sigma-Aldrich (G2267), purified rabbit GAPDH; denatured in 3 M GdnHCl and diluted into buffer A
B3: Fluorescein-5-maleimide-labelled trigger factor E326C (natural protein)
chain: B1 chain with E326C
modifications: fluorescein-5-maleimide on the cysteine of E326C
notes: Labelling efficiency typically above 92%; also called fluorescently labelling trigger factor; source: E. coli BL21 (DE3), purified (Ni-His Trap, ULP1 cleavage, HiTrap Q, Superdex 75), labelled with fluorescein-5-maleimide; not shown: His-Sumo, N-terminal, cleaved
B4: Alexa Fluor 488-labelled GAPDH (enzyme)
chain: not shown
modifications: CF Fluor 488 A maleimide (called Alexa Fluor 488) on cysteine; the paper says only Cys 149 is solvent-exposed in the native tetramer
notes: glyceraldehyde 3-phosphate dehydrogenase, rabbit; Labelling efficiency typically above 98%; also called fluorophore labelled GAPDH; source: bought: Sigma-Aldrich (G2267), labelled with CF Fluor 488A maleimide, denatured in GdnHCl

What was measured:
[1] = target: T1, refolding Vibrio harveyi luciferase (urea-denatured and diluted into refolding buffer) (Vibrio harveyi, UniProt P07740 1-355; P07739 1-324); assay: AUC; sedimentation velocity; 2 μM refolding luciferase alone or with 16 μM trigger factor; buffer A with 0.1 M urea, 4 °C, 35,000 r.p.m.; conditions: both partners purified
T1 construct: alpha subunit of the heterodimeric flavin monooxygenase luciferase of Vibrio harveyi; beta subunit of the heterodimeric flavin monooxygenase luciferase of Vibrio harveyi; In the assays the heterodimer was urea-denatured; also called luciferase subunits; source: E. coli (pET21b), purified (Ni-His Trap, Superdex 75); denatured in 5 M urea and diluted into buffer A; not shown: His tag (on the …)
T1 sequence (looked up) 1: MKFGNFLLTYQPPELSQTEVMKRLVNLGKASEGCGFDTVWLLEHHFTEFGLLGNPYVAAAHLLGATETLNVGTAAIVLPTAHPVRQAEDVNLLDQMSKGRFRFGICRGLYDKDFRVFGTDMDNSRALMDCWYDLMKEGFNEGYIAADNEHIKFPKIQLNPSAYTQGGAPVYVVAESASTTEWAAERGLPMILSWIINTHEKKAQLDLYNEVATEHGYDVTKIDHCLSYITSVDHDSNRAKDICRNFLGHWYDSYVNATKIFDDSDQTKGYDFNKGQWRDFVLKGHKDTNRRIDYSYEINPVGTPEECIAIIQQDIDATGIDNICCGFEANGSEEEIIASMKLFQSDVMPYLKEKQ
T1 sequence (looked up) 2: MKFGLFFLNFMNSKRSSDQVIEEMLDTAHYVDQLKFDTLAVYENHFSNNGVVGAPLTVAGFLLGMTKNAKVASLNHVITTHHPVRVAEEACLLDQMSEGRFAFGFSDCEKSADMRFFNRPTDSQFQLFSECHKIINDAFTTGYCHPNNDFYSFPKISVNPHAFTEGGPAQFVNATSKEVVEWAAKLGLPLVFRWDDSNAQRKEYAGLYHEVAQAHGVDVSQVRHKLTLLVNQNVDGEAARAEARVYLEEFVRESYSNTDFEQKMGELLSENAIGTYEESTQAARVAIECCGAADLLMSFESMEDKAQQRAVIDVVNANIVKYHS

[2] = target: B2; assay: AUC; sedimentation velocity; 5 μM refolding GAPDH alone or with 15 μM trigger factor; buffer A (0.1 M potassium phosphate pH 7.5, 0.1 M KCl, 1 mM TCEP) with 0.26 M GdnHCl, 4 °C, 40,000 r.p.m.; conditions: both partners purified
[3] = target: B3; assay: fluorescence polarisation; anisotropy titration; 0.5 μM fluorescein-labelled trigger factor E326C titrated with GdnHCl-denatured GAPDH; buffer A, 4 °C; quadratic fit; apparent; conditions: both partners purified
wild-type trigger factor [4] = target: B1; assay: cross-linking; XL-MS; 6 μM denatured GAPDH diluted into buffer A with equimolar trigger factor (0.26 M GdnHCl), 2 h on ice, then 2 mM disuccinimidyl dibutyric urea 2 h on ice; SDS–PAGE and LC–MS; conditions: both partners purified
[5] = target: the molecule itself; assay: AUC; sedimentation velocity; 5 μM refolding GAPDH alone or with 15 μM trigger factor; buffer A (0.1 M potassium phosphate pH 7.5, 0.1 M KCl, 1 mM TCEP) with 0.26 M GdnHCl, 4 °C, 40,000 r.p.m.
[6] = target: T1, refolding Vibrio harveyi luciferase …; assay: fluorescence polarisation; anisotropy titration; 0.5 μM fluorescein-labelled trigger factor E326C titrated with urea-denatured luciferase; buffer A, 25 °C; hyperbola fit; apparent; conditions: both partners purified
wild-type trigger factor [7] = target: B1; assay: fluorescence polarisation; stopped-flow anisotropy; 0.13 μM labelled denatured GAPDH mixed with 0.13–3.24 μM trigger factor; 0.1 M potassium phosphate pH 7.6, 0.1 M KCl, 1 mM TCEP, 0.26 M GdnHCl, 4 °C; linear fit of kobs against trigger factor concentration; conditions: both partners purified

B1
stoichiometry N [1]: 1 | stoichiometry N [2]: 1

B2
Kd [3]: 320 nM | binding result (wild-type trigger factor [4]): binds | binding result [5]: binds

B3
Kd [6]: 4500 nM

B4
koff (wild-type trigger factor [7]): 8.7 s⁻¹ | kon (wild-type trigger factor [7]): 6.6e+06 M⁻¹ s⁻¹
